First the molecules themselves.
B1: EFHC1 (parent)
chain: NIYYYLEDDSMSVIEPVVENSGIL
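Note: lentivirally expressed fusions sorted by FACS into six bins by GFP to DsRed ratio, PSI derived from sequencing read proportions per bin multiplied by bin number.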

This data set covers variants of B1. In words: protein stability index of a GFP-peptide fusion (GPS, HEK-293T) (PSI 1-6); higher = more stable. As to conditions: c terminus: a fixed tail appended.
On to NIYYYLEDDSMSVIEPVMENSGIL, for which the protein stability index came out at 1.66.
For NIYYYLEDDSMSVIEPVPENSGIL, the protein stability index turned out to be 2.38.
In the case of NIYYYLEDDSMSVIEPVQENSGIL, the protein stability index came out at 2.38.
The figure for NIYYYLEDDSMSVIEPVCENSGIL is 1.82.
The figure for NIYYYLEDDSMSVIEPVFENSGIL is 1.85.
The figure for NIYYYLEDDSMSVIEPVHENSGIL is 2.11; for NIYYYLEDDSMSVIEPVIENSGIL it is 2.23.
NIYYYLEDDSMSVIEPVRENSGIL: the protein stability index came out at 1.92.
With NIYYYLEDDSMSVIEPVDENSGIL, the protein stability index turned out to be 2.99.
Turning to NIYYYLEDDSMSVIEPVKENSGIL, the protein stability index was 2.33.
Regarding NIYYYLEDDSMSVIEPVLENSGIL, the protein stability index came out at 2.16.
For NIYYYLEDDSMSVIEPVGENSGIL, the protein stability index was found to be 3.04.
NIYYYLEDDSMSVIEPVEENSGIL: the protein stability index was determined as 2.69.
Consider NIYYYLEDDSMSVIEPVYENSGIL, for which the protein stability index was determined as 1.67.
For the variant NIYYYLEDDSMSVIEPVTENSGIL, the protein stability index worked out at 2.23.
With NIYYYLEDDSMSVIEPVAENSGIL, the protein stability index is 2.19.
NIYYYLEDDSMSVIEPVSENSGIL: the protein stability index is 2.67.
Regarding NIYYYLEDDSMSVIEPVNENSGIL, the protein stability index turned out to be 2.6.
With NIYYYLEDDSMSVIEPVWENSGIL, the protein stability index is 1.13.
In the case of NIYYYLEDDSMSVIEPVVETSGIL it was 1.71; in that of NIYYYLEDDSMSVIEPVVESSGIL, 2.13; in that of NIYYYLEDDSMSVIEPVVEVSGIL, 2.71.
As to NIYYYLEDDSMSVIEPVVEHSGIL, the protein stability index amounted to 1.79.
Consider NIYYYLEDDSMSVIEPVVERSGIL, for which the protein stability index was 1.33.
With NIYYYLEDDSMSVIEPVVEDSGIL, the protein stability index came out at 1.7.
With NIYYYLEDDSMSVIEPVVEFSGIL, the protein stability index came out at 1.48.
In the case of NIYYYLEDDSMSVIEPVVECSGIL it was 1.93; in that of NIYYYLEDDSMSVIEPVVEESGIL, 2.46.
In the case of NIYYYLEDDSMSVIEPVVEQSGIL it was 1.67; in that of NIYYYLEDDSMSVIEPVVEWSGIL, 2.37.
In the case of NIYYYLEDDSMSVIEPVVEKSGIL it was 2.06.
As for NIYYYLEDDSMSVIEPVVEASGIL, the protein stability index is 1.69.
Take NIYYYLEDDSMSVIEPVVELSGIL: the protein stability index worked out at 3.52.
On to NIYYYLEDDSMSVIEPVVEGSGIL, for which the protein stability index is 2.77.
For NIYYYLEDDSMSVIEPVVEPSGIL, the protein stability index worked out at 2.95.
Consider NIYYYLEDDSMSVIEPVVENCGIL, for which the protein stability index came out at 2.57.
As for NIYYYLEDDSMSVIEPVVENQGIL, the protein stability index stood at 2.6.
In the case of NIYYYLEDDSMSVIEPVVENVGIL, the protein stability index worked out at 1.6.
Take NIYYYLEDDSMSVIEPVVENMGIL: the protein stability index was found to be 1.78.
On to NIYYYLEDDSMSVIEPVVENEGIL, for which the protein stability index turned out to be 2.31.
For NIYYYLEDDSMSVIEPVVENPGIL, the protein stability index is 2.4.
For NIYYYLEDDSMSVIEPVVENGGIL, the protein stability index came to 2.23.
In the case of NIYYYLEDDSMSVIEPVVENHGIL it was 2.09; in that of NIYYYLEDDSMSVIEPVVENAGIL, 1.76; in that of NIYYYLEDDSMSVIEPVVENTGIL, 1.82.
In the case of NIYYYLEDDSMSVIEPVVENIGIL, the protein stability index came to 1.48.
On to NIYYYLEDDSMSVIEPVVENFGIL, for which the protein stability index is 1.45.
On to NIYYYLEDDSMSVIEPVVENDGIL, for which the protein stability index is 2.4.
NIYYYLEDDSMSVIEPVVENRGIL: the protein stability index amounted to 1.74.
As to NIYYYLEDDSMSVIEPVVENYGIL, the protein stability index turned out to be 1.39.
In the case of NIYYYLEDDSMSVIEPVVENLGIL it was 2.03; in that of NIYYYLEDDSMSVIEPVVENKGIL, 2.12.
The figure for NIYYYLEDDSMSVIEPVVENNGIL is 2.33.
With NIYYYLEDDSMSVIEPVVENSAIL, the protein stability index was 2.19.
Take NIYYYLEDDSMSVIEPVVENSEIL: the protein stability index was 2.71.
As to NIYYYLEDDSMSVIEPVVENSRIL, the protein stability index was 1.55.
On to NIYYYLEDDSMSVIEPVVENSMIL, for which the protein stability index came out at 1.46.
NIYYYLEDDSMSVIEPVVENSQIL: the protein stability index amounted to 1.82.
In the case of NIYYYLEDDSMSVIEPVVENSIIL it was 1.81.
With NIYYYLEDDSMSVIEPVVENSLIL, the protein stability index amounted to 1.51.
In the case of NIYYYLEDDSMSVIEPVVENSSIL it was 1.7; in that of NIYYYLEDDSMSVIEPVVENSKIL, 1.78.
The figure for NIYYYLEDDSMSVIEPVVENSPIL is 2.14; for NIYYYLEDDSMSVIEPVVENSHIL it is 1.71; for NIYYYLEDDSMSVIEPVVENSNIL it is 2.25.
Regarding NIYYYLEDDSMSVIEPVVENSDIL, the protein stability index came out at 2.44.
Take NIYYYLEDDSMSVIEPVVENSCIL: the protein stability index is 1.62.
With NIYYYLEDDSMSVIEPWVENSGIL, the protein stability index turned out to be 1.94.
For NIYYYLEDDSMSVIEPSVENSGIL, the protein stability index turned out to be 1.88.
In the case of NIYYYLEDDSMSVIEPNVENSGIL it was 1.76; in that of NIYYYLEDDSMSVIEPMVENSGIL, 2.07; in that of NIYYYLEDDSMSVIEPYVENSGIL, 1.72.
The figure for NIYYYLEDDSMSVIEPPVENSGIL is 2.85; for NIYYYLEDDSMSVIEPQVENSGIL it is 2.41.
Regarding NIYYYLEDDSMSVIEPRVENSGIL, the protein stability index worked out at 1.98.
Take NIYYYLEDDSMSVIEPTVENSGIL: the protein stability index turned out to be 2.32.
As to NIYYYLEDDSMSVIEPVVNNSGIL, the protein stability index came out at 1.69.
Turning to NIYYYLEDDSMSVIEPVVSNSGIL, the protein stability index was 1.35.
With NIYYYLEDDSMSVIEPVVKNSGIL, the protein stability index is 2.23.
In the case of NIYYYLEDDSMSVIEPVVANSGIL it was 1.59; in that of NIYYYLEDDSMSVIEPVVHNSGIL, 2.01.
Regarding NIYYYLEDDSMSVIEPVVRNSGIL, the protein stability index came out at 1.67.
Turning to NIYYYLEDDSMSVIEPVVCNSGIL, the protein stability index worked out at 1.39.
In the case of NIYYYLEDDSMSVIEPVVVNSGIL it was 2.
NIYYYLEDDSMSVIEPVVMNSGIL: the protein stability index turned out to be 1.86.
With NIYYYLEDDSMSVIEPVVLNSGIL, the protein stability index stood at 1.42.
In the case of NIYYYLEDDSMSVIEPVVPNSGIL it was 2.34; in that of NIYYYLEDDSMSVIEPVVGNSGIL, 1.74.
Take NIYYYLEDDSMSVIEPVVDNSGIL: the protein stability index stood at 2.01.
The figure for NIYYYLEDDSMSVIEPVVFNSGIL is 1.89; for NIYYYLEDDSMSVIEPVVYNSGIL it is 2.53; for NIYYYLEDDSMSVIEPVVQNSGIL it is 2.16.
The figure for NIYYYLEDDSMSVIEPVVTNSGIL is 1.66; for NIYYYLEDDSMSVIEPVVINSGIL it is 1.77.

Source of the values: the supplement of paper PMC10567573.
